Data: US20250295731A1

Key:
α9β1 integrin [1] = molecular target: α9β1 integrin (UniProt Q13797); assay: inhibition of α9LN18 cell adhesion to immobilized recombinant VCAM-1
α9β1 integrin [2] = molecular target: α9β1 integrin (UniProt Q13797); assay: inhibition of α9LN18 cell adhesion to immobilized F9 fraction
α9β1 integrin [3] = molecular target: α9β1 integrin (UniProt Q13797); assay: inhibition of α9+ cell adhesion to immobilized Fraction 9-4
α9β1 integrin [4] = molecular target: α9β1 integrin (UniProt Q13797); assay: inhibition of α9+ cell adhesion to immobilized VCAM-1

UniProt Q13797, sequence (Q13797 30-1035, chain 1 of 2): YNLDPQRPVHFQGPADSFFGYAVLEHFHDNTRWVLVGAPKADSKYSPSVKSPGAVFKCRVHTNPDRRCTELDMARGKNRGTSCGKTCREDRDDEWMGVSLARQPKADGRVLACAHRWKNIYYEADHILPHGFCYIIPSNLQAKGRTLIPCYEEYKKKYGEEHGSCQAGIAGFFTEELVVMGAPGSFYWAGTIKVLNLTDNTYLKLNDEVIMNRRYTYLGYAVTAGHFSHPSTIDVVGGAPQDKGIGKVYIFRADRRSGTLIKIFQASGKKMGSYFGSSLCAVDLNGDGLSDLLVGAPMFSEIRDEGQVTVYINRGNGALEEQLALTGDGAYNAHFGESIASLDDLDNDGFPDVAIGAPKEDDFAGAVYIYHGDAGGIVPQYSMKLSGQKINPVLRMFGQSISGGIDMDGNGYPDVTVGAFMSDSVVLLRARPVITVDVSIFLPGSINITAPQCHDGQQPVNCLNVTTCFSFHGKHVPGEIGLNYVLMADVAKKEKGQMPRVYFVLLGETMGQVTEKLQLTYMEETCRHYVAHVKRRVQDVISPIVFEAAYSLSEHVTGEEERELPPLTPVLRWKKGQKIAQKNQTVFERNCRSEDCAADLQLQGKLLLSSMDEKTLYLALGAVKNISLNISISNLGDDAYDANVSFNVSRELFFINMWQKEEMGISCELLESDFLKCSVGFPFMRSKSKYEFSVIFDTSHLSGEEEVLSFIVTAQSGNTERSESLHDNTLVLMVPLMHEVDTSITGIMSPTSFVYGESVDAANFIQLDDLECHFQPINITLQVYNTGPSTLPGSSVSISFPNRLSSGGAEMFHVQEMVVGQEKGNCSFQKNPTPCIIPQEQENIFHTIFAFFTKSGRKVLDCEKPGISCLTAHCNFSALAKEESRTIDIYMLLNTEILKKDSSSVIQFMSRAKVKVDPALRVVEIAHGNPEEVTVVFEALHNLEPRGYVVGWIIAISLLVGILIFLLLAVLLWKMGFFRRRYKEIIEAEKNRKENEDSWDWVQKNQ
UniProt Q13797, sequence (P05556 21-798, chain 2 of 2, further chain): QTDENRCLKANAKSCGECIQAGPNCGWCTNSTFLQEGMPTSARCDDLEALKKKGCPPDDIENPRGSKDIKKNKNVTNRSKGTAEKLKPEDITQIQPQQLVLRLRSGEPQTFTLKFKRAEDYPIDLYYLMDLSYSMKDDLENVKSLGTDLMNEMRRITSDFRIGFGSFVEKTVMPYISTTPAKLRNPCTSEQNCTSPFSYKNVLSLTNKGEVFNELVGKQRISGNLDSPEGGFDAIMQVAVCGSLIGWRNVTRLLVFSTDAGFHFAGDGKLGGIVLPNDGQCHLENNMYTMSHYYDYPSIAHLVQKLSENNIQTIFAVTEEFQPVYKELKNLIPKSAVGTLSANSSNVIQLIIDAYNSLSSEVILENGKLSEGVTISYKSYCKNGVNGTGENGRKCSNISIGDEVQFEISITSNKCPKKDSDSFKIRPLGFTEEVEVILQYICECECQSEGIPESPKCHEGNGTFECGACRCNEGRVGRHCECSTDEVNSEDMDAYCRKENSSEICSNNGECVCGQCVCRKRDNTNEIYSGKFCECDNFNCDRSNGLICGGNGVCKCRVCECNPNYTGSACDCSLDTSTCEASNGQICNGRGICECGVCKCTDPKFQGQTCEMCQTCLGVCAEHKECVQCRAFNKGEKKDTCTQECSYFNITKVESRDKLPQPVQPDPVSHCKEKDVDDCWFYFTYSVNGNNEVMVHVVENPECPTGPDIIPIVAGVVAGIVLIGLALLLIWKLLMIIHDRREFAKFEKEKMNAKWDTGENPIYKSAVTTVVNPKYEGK
VLO5, snake venom MLD-disintegrin, sequence (P0C6A9 whole entry): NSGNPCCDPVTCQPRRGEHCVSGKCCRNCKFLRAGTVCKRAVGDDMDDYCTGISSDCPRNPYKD
VLO5, snake venom MLD-disintegrin, sequence (P0C6B0 whole entry, further chain): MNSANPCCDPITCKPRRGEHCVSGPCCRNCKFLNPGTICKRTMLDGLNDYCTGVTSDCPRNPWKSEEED

Substance	concentration giving complete inhibition of cell adhesion (α9β1 integrin [1]) [µM]	concentration giving complete inhibition of cell adhesion (α9β1 integrin [2]) [µM]	IC50 (α9β1 integrin [3]) [nM]	IC50 (α9β1 integrin [4]) [nM]
CS-1 peptide EILDVPST	500	500		
VLO5, snake venom MLD-disintegrin			5.6	3.2
